This is an account of results in patent publication US20220073599A1 (Hoffmann-La Roche, published 2022).

Common to all, as to assay: SPR crossreactivity set-up, Fab captured by anti-Fab antibody, Ang2-RBD injected, 25 C
One assay has as its target T1, Mouse ANG2 (mouse, UniProt O35608 275-496, limits assumed).
T1 construct: domain: RBD; also called mouse Ang2-RBD
T1 sequence (looked up): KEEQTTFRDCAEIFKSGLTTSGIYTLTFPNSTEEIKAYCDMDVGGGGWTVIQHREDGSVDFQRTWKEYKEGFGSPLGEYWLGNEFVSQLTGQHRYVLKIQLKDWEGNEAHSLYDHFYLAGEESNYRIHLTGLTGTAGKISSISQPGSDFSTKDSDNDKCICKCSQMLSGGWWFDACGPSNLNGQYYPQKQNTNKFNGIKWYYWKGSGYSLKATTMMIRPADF
The procedure:
(§1) An anti-Fab capturing antibody (GE Healthcare 28958325) was immobilized to a Series S Sensor Chip C1 (GE Healthcare BR100535) using standard amine coupling chemistry resulting in a surface density of approximately 800 resonance units (RU). As running and dilution buffer, HBS-P+ (10 mM HEPES, 150 mM NaCl pH 7.4, 0.05% Surfactant P20) was used, the temperature of measurement was 25° C. The tested antibody was captured by injecting a 50 nM solution for 60 sec at a flow of 5 μl/min. Association was measured by injection of Ang2-RBD from the indicated species in various concentrations in solution for 180 sec at a flow of 30 μl/min (0.07 nM-50 nM, 1:3 dilution). The dissociation phase was monitored for up to 600 sec and triggered by switching from the sample solution to running buffer at a flow rate of 30 μl/min. The surface was regenerated by injection of 10 mM Glycine pH 2.1 for 60 s at a flow rate of 30 μl/min. Bulk refractive index differences were corrected by subtracting blank injections and by subtracting the response obtained from the reference flow cell without captured antibody. Curve fitting was performed using the 1:1 Langmuir binding model within the Biacore® evaluation software.
(§2) Crossreactivity to VEGF-A and ANG2 from other species was assessed as described above in “Materials & general methods” section.

A further assay addresses T2, Rabbit ANG2 (rabbit, UniProt G1T9B3 281-496).
T2 construct: domain: RBD; also called rabbit Ang2-RBD
T2 sequence: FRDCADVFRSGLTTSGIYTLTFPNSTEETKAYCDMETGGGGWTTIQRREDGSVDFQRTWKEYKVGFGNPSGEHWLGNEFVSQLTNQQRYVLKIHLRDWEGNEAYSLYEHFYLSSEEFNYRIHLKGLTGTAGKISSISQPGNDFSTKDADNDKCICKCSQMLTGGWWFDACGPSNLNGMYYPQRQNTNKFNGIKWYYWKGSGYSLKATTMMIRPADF
The method, then: as §1, §2

Another assay concerns the target T3, Pig ANG2 (pig, UniProt Q9BDY7 275-496, limits assumed).
T3 construct: domain: RBD; also called pig Ang2-RBD
T3 sequence (looked up): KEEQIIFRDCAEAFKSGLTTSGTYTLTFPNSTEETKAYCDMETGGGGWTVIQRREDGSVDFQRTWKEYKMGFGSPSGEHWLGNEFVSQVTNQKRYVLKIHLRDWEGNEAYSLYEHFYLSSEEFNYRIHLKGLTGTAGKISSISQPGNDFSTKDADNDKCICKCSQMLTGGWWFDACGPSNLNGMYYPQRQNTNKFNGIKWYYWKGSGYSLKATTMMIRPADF
The procedure: as §1, §2

Another assay has as its target T4, Cyno ANG2 (cyno, UniProt A0A2K5VNX6 281-496).
T4 construct: domain: RBD; also called cyno Ang2-RBD
T4 sequence: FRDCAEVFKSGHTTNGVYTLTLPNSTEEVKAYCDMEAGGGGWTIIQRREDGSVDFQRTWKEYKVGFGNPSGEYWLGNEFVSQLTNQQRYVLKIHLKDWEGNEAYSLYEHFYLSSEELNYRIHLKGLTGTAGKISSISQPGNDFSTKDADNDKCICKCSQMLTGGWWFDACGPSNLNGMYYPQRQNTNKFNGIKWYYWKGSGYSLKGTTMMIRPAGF
The method, then:
as §1, §2

For the next assay, the target named is T5, human Ang2-RBD (human, UniProt O15123 275-496, limits assumed).
T5 construct: also called Human ANG2 (SPR); Angiopoietin 2-RBD
T5 sequence: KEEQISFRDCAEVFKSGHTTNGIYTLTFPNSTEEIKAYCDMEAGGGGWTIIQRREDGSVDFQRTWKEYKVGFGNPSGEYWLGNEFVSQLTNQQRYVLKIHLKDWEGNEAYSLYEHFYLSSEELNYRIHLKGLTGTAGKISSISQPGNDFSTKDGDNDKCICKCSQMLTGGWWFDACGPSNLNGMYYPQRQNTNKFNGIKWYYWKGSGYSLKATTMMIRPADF
The method, then:
as §1, §2

B1: bispecific anti-VEGF-A/anti-ANG2 Fab fragment P1AD9820 (Fab, V domains shown)
VH: SEHLVESGGGLVKPGGSLRLSCATADFFEYDDMSWVRQAPGKGLEWVGSISPKGDHKYLNTKFIGRFTISRDDSKNTLYLQMNSLRAEDTAVYYCARDVGFFDWWGQGTLVTVSS
VL: AIYMHQEPSSLSASVGDRVTITCHGSYWLNSEVAWYQQKPGKAPKLLIFDGDFKVYEVPSRFSGSGSHEDYTLTISSLQPEDFATYYCQQYRYHPYTFGHGTKVEIKR
notes: Bispecific Fab with two paratopes in one VH/VL pair; also called P1AD9820 Fab
With B1, the Kd with Mouse ANG2 stood at 92 pM; in the assay with Rabbit ANG2 it was 5 pM; with Pig ANG2, 13 pM; in the assay with Cyno ANG2 it was 2 pM; with human Ang2-RBD it was 3 pM. In addition, the koff in the assay with Mouse ANG2 turned out to be 0.000743 s⁻¹; in the assay with Rabbit ANG2, 5.33e-05 s⁻¹; with Pig ANG2 it was 0.000105 s⁻¹; with Cyno ANG2, 1.56e-05 s⁻¹; with human Ang2-RBD it was 2.64e-05 s⁻¹. The kon in the assay with Mouse ANG2 came to 8.11e+06 M⁻¹ s⁻¹; with Rabbit ANG2 it was 9.91e+06 M⁻¹ s⁻¹; with Pig ANG2, 7.82e+06 M⁻¹ s⁻¹; with Cyno ANG2, 9.98e+06 M⁻¹ s⁻¹; with human Ang2-RBD, 1.02e+07 M⁻¹ s⁻¹. The “t1/2” value with Mouse ANG2 was 0.267 h; with Rabbit ANG2, 3.62 h; with Pig ANG2 it was 1.83 h; in the assay with Cyno ANG2, 12.3 h; in the assay with human Ang2-RBD it was 7.28 h.
